# Experimental data published in patent US20160263155A1, “T CELL RECEPTORS DIRECTED AGAINST THE PREFERENTIALLY EXPRESSED ANTIGEN OF MELANOMA AND USES THEREOF” (LEIDEN UNIVERSITY MEDICAL CENTER, priority 2015, published 2016).
# Residue numbers refer to the chain shown, from its start. In names and notes the source's numbering stands.
# B1: Y153A (protein)
# chain: GFGDVGALESLRGNADLAAILSMEPCGHCLIINNVNFCRESGLRTRTGSNIDCEKLRRRFSSLHFMVEVKGDLTAKKMVLALLELAQQDHGALDCCVVVILSHGCQASHLQFPGAVYGTDGCPVSVEKIVNIFNGTSCPSLGGKPKLFFIQACGGEQKDHGFEVASTSPEDESPGSNPEPDATPFQEGLRTFDQLDAISSLPTPSDIFVSYSTFPGFVSWRDPKSGSWYVETLDDIFEQWAHSEDLQSLLLRVANAVSVKGIYKQMPGCFNFLRKKLFFKTS
# B2: T317C (protein)
# chain: B1 chain with A19Y, T183C
# B3: P318A (protein)
# chain: B1 chain with A19Y, P184A
# B4: D327R (protein)
# chain: B1 chain with A19Y, D193R
# B5: L329G (protein)
# chain: B1 chain with A19Y, L195G
# B6: F404S (protein)
# chain: B1 chain with A19Y, F270S
# B7: N405A (protein)
# chain: B1 chain with A19Y, N271A
# B8: F319A (protein)
# chain: B1 chain with A19Y, F185A
# B9: D327G (protein)
# chain: B1 chain with A19Y, D193G
# B10: T317E (protein)
# chain: B1 chain with A19Y, T183E
# B11: C403A (protein)
# chain: B1 chain with A19Y, C269A
# B12: L329K (protein)
# chain: B1 chain with A19Y, L195K
# B13: C403T (protein)
# chain: B1 chain with A19Y, C269T
# B14: Y153F (protein)
# chain: B1 chain with A19F
# B15: D330A-N405T (protein)
# chain: B1 chain with A19Y, D196A, N271T
# B16: Q328R (protein)
# chain: B1 chain with A19Y, Q194R
# B17: A331K (protein)
# chain: B1 chain with A19Y, A197K
# B18: F404A (protein)
# chain: B1 chain with A19Y, F270A
# B19: C403S (protein)
# chain: B1 chain with A19Y, C269S
# B20: N405T (protein)
# chain: B1 chain with A19Y, N271T
# B21: D327K (protein)
# chain: B1 chain with A19Y, D193K
# B22: Q328K (protein)
# chain: B1 chain with A19Y, Q194K
# B23: F326K (protein)
# chain: B1 chain with A19Y, F192K
# B24: ^316ATPF^319AVPI: Caspase-9 mutant (SEQ ID NOS 97 and 98) (SMAC/Diablo) (protein, UniProt P55211 1-416, looked up, variant T317V F319I)
# chain: MDEADRRLLRRCRLRLVEELQVDQLWDALLSRELFRPHMIEDIQRAGSGSRRDQARQLIIDLETRGSQALPLFISCLEDTGQDMLASFLRTNRQAAKLSKPTLENLTPVVLRPEIRKPEVLRPETPRPVDIGSGGFGDVGALESLRGNADLAYILSMEPCGHCLIINNVNFCRESGLRTRTGSNIDCEKLRRRFSSLHFMVEVKGDLTAKKMVLALLELAQQDHGALDCCVVVILSHGCQASHLQFPGAVYGTDGCPVSVEKIVNIFNGTSCPSLGGKPKLFFIQACGGEQKDHGFEVASTSPEDESPGSNPEPDAVPIQEGLRTFDQLDAISSLPTPSDIFVSYSTFPGFVSWRDPKSGSWYVETLDDIFEQWAHSEDLQSLLLRVANAVSVKGIYKQMPGCFNFLRKKLFFKTS
# B25: ^402GCFNF^406AAAAA: Caspase-9 homodimerization domain mutant (SEQ ID NOS 95 and 99) (protein, UniProt P55211 1-416, looked up, variant G402A C403A F404A N405A F406A)
# chain: B24 chain with V317T, I319F, G402A, C403A, F404A, N405A, F406A
# System: chimeric Caspase-9 polypeptide
# Experiment: Caspase mutant classes and basal activity (Table 3)
# Assay type: cell-based, human
# Details: class heading of Table 3
# Chain of chimeric Caspase-9 polypeptide (as listed by the source, change not shown): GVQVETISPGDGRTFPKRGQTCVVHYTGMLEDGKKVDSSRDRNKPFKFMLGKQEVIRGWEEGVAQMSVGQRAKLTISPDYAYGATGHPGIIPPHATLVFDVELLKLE
row,Molecule,Basal Activity
1,B1,Decreased
2,B2,Similar
3,B3,Similar
4,B4,Increased
5,B5,Increased
6,B6,dead
7,B7,Similar
8,B8,Similar
9,B9,Increased
10,B10,Increased
11,B11,Similar
12,B12,Increased
13,B13,Similar
14,B14,Decreased
15,B15,Increased
16,B16,Increased
17,B17,Increased
18,B18,dead
19,B19,Similar
20,B20,Increased
21,B21,Increased
22,B22,Increased
23,B23,Increased
24,B24,Similar
25,B25,dead

# Same assay, conditions: class heading of Table 3; ligand IC50
row,Molecule,IC50
1,B1,much higher
2,B2,Similar
3,B3,Similar
4,B7,Similar
5,B8,Similar
6,B11,Similar
7,B13,Similar
8,B14,much higher
9,B19,Similar
10,B24,Similar
